These are literature values, as cited in patent US11419917B2, “Treatment for SARS-CoV-2 and other coronaviruses” (priority 2020, dated 2022).

“Also recorded” adds a separate entry of the source. Where two headings read alike, the source gives them in different places.

For series [1] the following is noted: in vivo.
For series [2] the following is noted: patients treated for 3 days compared to placebo.

A word on the half-life: it is how long it takes for the measured level to halve. As to “BNP: B-type natriuretic peptide, a 32-amino acid peptide; generic name Nesiritide”, the half-life in series [1] was 22 min; in series [1] (listed as B-type NP) it was 20 min.

Turning to “ANP: A-type natriuretic peptide, a 28-amino acid peptide degraded from pro ANP”, the half-life result in series [1] was “approximately 10 minutes; also recorded: several”.

`CC[C@H](C)[C@@H]1NC(=O)[C@H](CCCNC(=N)N)NC(=O)[C@H](CC(=O)O)NC(=O)[C@H](CCSC)NC(=O)[C@H](CCCNC(=N)N)NC(=O)CNC(=O)CNC(=O)[C@H](Cc2ccccc2)NC(=O)[C@@H](NC(=O)[C@H](CO)NC(=O)[C@H](CO)NC(=O)[C@H](CCCNC(=N)N)NC(=O)[C@H](CCCNC(=N)N)NC(=O)[C@H](CC(C)C)NC(=O)[C@@H](N)CO)CSSC[C@@H](C(=O)N[C@@H](CC(N)=O)C(=O)N[C@@H](CO)C(=O)N[C@@H](Cc2ccccc2)C(=O)N[C@@H](CCCNC(=N)N)C(=O)N[C@@H](Cc2ccc(O)cc2)C(=O)O)NC(=O)CNC(=O)[C@H](CC(C)C)NC(=O)CNC(=O)[C@H](CO)NC(=O)[C@H](CCC(N)=O)NC(=O)[C@H](C)NC(=O)CNC1=O` [Carperitide]: the “decrease in infarct size” value in series [2] is ~15%.
